The results in this text go back to article PMC10786891, “Massively parallel profiling of RNA-targeting CRISPR-Cas13d”.

The labels stand for the following.
B1: target 1 MT 5'PFS GCG 3'PFS AGC (mixed)
RNA 1: CACCCGUGCAAAAAUGCAGGGGUCUAAAACUGAGCGGAUAACCUCUCUAUGG
RNA 2: GGGAAUGGAUCCACAUCUACGAAUUCGCGCCAUAGAGAGGUUAUCCGCUCAAGCAGAUCGGAAGAGCACACGU
B2: target 1 MT 5'PFS CAA 3'PFS CCC (mixed)
RNA 1: CACCCGUGCAAAAAUGCAGGGGUCUAAAACUGAGCGGAUAACCUCUCUAUGG
RNA 2: GGGAAUGGAUCCACAUCUACGAAUUCCAACCAUAGAGAGGUUAUCCGCUCACCCAGAUCGGAAGAGCACACGU
B3: target 1 MT 5'PFS GUC 3'PFS CCC (mixed)
RNA 1: CACCCGUGCAAAAAUGCAGGGGUCUAAAACUGAGCGGAUAACCUCUCUAUGG
RNA 2: GGGAAUGGAUCCACAUCUACGAAUUCGUCCCAUAGAGAGGUUAUCCGCUCACCCAGAUCGGAAGAGCACACGU
B4: target 1 MT 5'PFS GCC 3'PFS UAC (mixed)
RNA 1: CACCCGUGCAAAAAUGCAGGGGUCUAAAACUGAGCGGAUAACCUCUCUAUGG
RNA 2: GGGAAUGGAUCCACAUCUACGAAUUCGCCCCAUAGAGAGGUUAUCCGCUCAUACAGAUCGGAAGAGCACACGU
B5: target 1 insA 3' of 5,insC 3' of 3 (mixed)
RNA 1: CACCCGUGCAAAAAUGCAGGGGUCUAAAACUGAGCGGAUAACCUCUCUAUGG
RNA 2: GGGAAUGGAUCCACAUCUACGAAUUCGUACCAUAGAGAGGUUAUCCGACUCCACCGAGAUCGGAAGAGCACACGU
B6: target 1 insG 3' of 19,insG 3' of 6 (mixed)
RNA 1: CACCCGUGCAAAAAUGCAGGGGUCUAAAACUGAGCGGAUAACCUCUCUAUGG
RNA 2: GGGAAUGGAUCCACAUCUACGAAUUCGUACCAUGAGAGAGGUUAUCCGGCUCACCGAGAUCGGAAGAGCACACGU
B7: target 1 MT 5'PFS GCG 3'PFS AGG (mixed)
RNA 1: CACCCGUGCAAAAAUGCAGGGGUCUAAAACUGAGCGGAUAACCUCUCUAUGG
RNA 2: GGGAAUGGAUCCACAUCUACGAAUUCGCGCCAUAGAGAGGUUAUCCGCUCAAGGAGAUCGGAAGAGCACACGU
B8: target 1 MT 5'PFS GUC 3'PFS CCA (mixed)
RNA 1: CACCCGUGCAAAAAUGCAGGGGUCUAAAACUGAGCGGAUAACCUCUCUAUGG
RNA 2: GGGAAUGGAUCCACAUCUACGAAUUCGUCCCAUAGAGAGGUUAUCCGCUCACCAAGAUCGGAAGAGCACACGU
B9: target 1 MT 5'PFS GUC 3'PFS CCG (mixed)
RNA 1: CACCCGUGCAAAAAUGCAGGGGUCUAAAACUGAGCGGAUAACCUCUCUAUGG
RNA 2: GGGAAUGGAUCCACAUCUACGAAUUCGUCCCAUAGAGAGGUUAUCCGCUCACCGAGAUCGGAAGAGCACACGU
B10: target 1 MT 5'PFS GCC 3'PFS UAG (mixed)
RNA 1: CACCCGUGCAAAAAUGCAGGGGUCUAAAACUGAGCGGAUAACCUCUCUAUGG
RNA 2: GGGAAUGGAUCCACAUCUACGAAUUCGCCCCAUAGAGAGGUUAUCCGCUCAUAGAGAUCGGAAGAGCACACGU
B11: target 1 MT 5'PFS GCG 3'PFS AGU (mixed)
RNA 1: CACCCGUGCAAAAAUGCAGGGGUCUAAAACUGAGCGGAUAACCUCUCUAUGG
RNA 2: GGGAAUGGAUCCACAUCUACGAAUUCGCGCCAUAGAGAGGUUAUCCGCUCAAGUAGAUCGGAAGAGCACACGU
B12: target 1 MT 5'PFS GGC 3'PFS AUC (mixed)
RNA 1: CACCCGUGCAAAAAUGCAGGGGUCUAAAACUGAGCGGAUAACCUCUCUAUGG
RNA 2: GGGAAUGGAUCCACAUCUACGAAUUCGGCCCAUAGAGAGGUUAUCCGCUCAAUCAGAUCGGAAGAGCACACGU
B13: target 1 MT 5'PFS GGC 3'PFS AUG (mixed)
RNA 1: CACCCGUGCAAAAAUGCAGGGGUCUAAAACUGAGCGGAUAACCUCUCUAUGG
RNA 2: GGGAAUGGAUCCACAUCUACGAAUUCGGCCCAUAGAGAGGUUAUCCGCUCAAUGAGAUCGGAAGAGCACACGU
B14: target 1 MT 5'PFS CAA 3'PFS AUU (mixed)
RNA 1: CACCCGUGCAAAAAUGCAGGGGUCUAAAACUGAGCGGAUAACCUCUCUAUGG
RNA 2: GGGAAUGGAUCCACAUCUACGAAUUCCAACCAUAGAGAGGUUAUCCGCUCAAUUAGAUCGGAAGAGCACACGU
B15: target 1 MT 5'PFS GGC 3'PFS AUU (mixed)
RNA 1: CACCCGUGCAAAAAUGCAGGGGUCUAAAACUGAGCGGAUAACCUCUCUAUGG
RNA 2: GGGAAUGGAUCCACAUCUACGAAUUCGGCCCAUAGAGAGGUUAUCCGCUCAAUUAGAUCGGAAGAGCACACGU
B16: target 1 MT 5'PFS UAU 3'PFS UCC (mixed)
RNA 1: CACCCGUGCAAAAAUGCAGGGGUCUAAAACUGAGCGGAUAACCUCUCUAUGG
RNA 2: GGGAAUGGAUCCACAUCUACGAAUUCUAUCCAUAGAGAGGUUAUCCGCUCAUCCAGAUCGGAAGAGCACACGU
B17: target 1 MT 5'PFS AGA 3'PFS CCG (mixed)
RNA 1: CACCCGUGCAAAAAUGCAGGGGUCUAAAACUGAGCGGAUAACCUCUCUAUGG
RNA 2: GGGAAUGGAUCCACAUCUACGAAUUCAGACCAUAGAGAGGUUAUCCGCUCACCGAGAUCGGAAGAGCACACGU
B18: target 1 MT 5'PFS UCC 3'PFS CCG (mixed)
RNA 1: CACCCGUGCAAAAAUGCAGGGGUCUAAAACUGAGCGGAUAACCUCUCUAUGG
RNA 2: GGGAAUGGAUCCACAUCUACGAAUUCUCCCCAUAGAGAGGUUAUCCGCUCACCGAGAUCGGAAGAGCACACGU
B19: target 1 MT 5'PFS AGA 3'PFS CCU (mixed)
RNA 1: CACCCGUGCAAAAAUGCAGGGGUCUAAAACUGAGCGGAUAACCUCUCUAUGG
RNA 2: GGGAAUGGAUCCACAUCUACGAAUUCAGACCAUAGAGAGGUUAUCCGCUCACCUAGAUCGGAAGAGCACACGU
B20: target 1 MT 5'PFS GUU 3'PFS AAC (mixed)
RNA 1: CACCCGUGCAAAAAUGCAGGGGUCUAAAACUGAGCGGAUAACCUCUCUAUGG
RNA 2: GGGAAUGGAUCCACAUCUACGAAUUCGUUCCAUAGAGAGGUUAUCCGCUCAAACAGAUCGGAAGAGCACACGU
B21: target 1 MT 5'PFS CAA 3'PFS CCG (mixed)
RNA 1: CACCCGUGCAAAAAUGCAGGGGUCUAAAACUGAGCGGAUAACCUCUCUAUGG
RNA 2: GGGAAUGGAUCCACAUCUACGAAUUCCAACCAUAGAGAGGUUAUCCGCUCACCGAGAUCGGAAGAGCACACGU
B22: target 1 C4G,G15A (mixed)
RNA 1: CACCCGUGCAAAAAUGCAGGGGUCUAAAACUGAGCGGAUAACCUCUCUAUGG
RNA 2: GGGAAUGGAUCCACAUCUACGAAUUCGUACCAUAGAAAGGUUAUCCGGUCACCGAGAUCGGAAGAGCACACGU
B23: target 1 MT 5'PFS UCC 3'PFS CCU (mixed)
RNA 1: CACCCGUGCAAAAAUGCAGGGGUCUAAAACUGAGCGGAUAACCUCUCUAUGG
RNA 2: GGGAAUGGAUCCACAUCUACGAAUUCUCCCCAUAGAGAGGUUAUCCGCUCACCUAGAUCGGAAGAGCACACGU
B24: target 1 MT 5'PFS GCC 3'PFS UAU (mixed)
RNA 1: CACCCGUGCAAAAAUGCAGGGGUCUAAAACUGAGCGGAUAACCUCUCUAUGG
RNA 2: GGGAAUGGAUCCACAUCUACGAAUUCGCCCCAUAGAGAGGUUAUCCGCUCAUAUAGAUCGGAAGAGCACACGU
B25: target 1 MT 5'PFS GGC 3'PFS AUA (mixed)
RNA 1: CACCCGUGCAAAAAUGCAGGGGUCUAAAACUGAGCGGAUAACCUCUCUAUGG
RNA 2: GGGAAUGGAUCCACAUCUACGAAUUCGGCCCAUAGAGAGGUUAUCCGCUCAAUAAGAUCGGAAGAGCACACGU
B26: target 1 MT 5'PFS GAC 3'PFS CCC (mixed)
RNA 1: CACCCGUGCAAAAAUGCAGGGGUCUAAAACUGAGCGGAUAACCUCUCUAUGG
RNA 2: GGGAAUGGAUCCACAUCUACGAAUUCGACCCAUAGAGAGGUUAUCCGCUCACCCAGAUCGGAAGAGCACACGU
B27: target 1 MT 5'PFS GCC 3'PFS UAA (mixed)
RNA 1: CACCCGUGCAAAAAUGCAGGGGUCUAAAACUGAGCGGAUAACCUCUCUAUGG
RNA 2: GGGAAUGGAUCCACAUCUACGAAUUCGCCCCAUAGAGAGGUUAUCCGCUCAUAAAGAUCGGAAGAGCACACGU

For this series, the target named is T1, EsCas13d, nuclease-dead (Eubacterium siraeum, UniProt B0MS50, R295A;H300A;R849A;H854A).
T1 sequence: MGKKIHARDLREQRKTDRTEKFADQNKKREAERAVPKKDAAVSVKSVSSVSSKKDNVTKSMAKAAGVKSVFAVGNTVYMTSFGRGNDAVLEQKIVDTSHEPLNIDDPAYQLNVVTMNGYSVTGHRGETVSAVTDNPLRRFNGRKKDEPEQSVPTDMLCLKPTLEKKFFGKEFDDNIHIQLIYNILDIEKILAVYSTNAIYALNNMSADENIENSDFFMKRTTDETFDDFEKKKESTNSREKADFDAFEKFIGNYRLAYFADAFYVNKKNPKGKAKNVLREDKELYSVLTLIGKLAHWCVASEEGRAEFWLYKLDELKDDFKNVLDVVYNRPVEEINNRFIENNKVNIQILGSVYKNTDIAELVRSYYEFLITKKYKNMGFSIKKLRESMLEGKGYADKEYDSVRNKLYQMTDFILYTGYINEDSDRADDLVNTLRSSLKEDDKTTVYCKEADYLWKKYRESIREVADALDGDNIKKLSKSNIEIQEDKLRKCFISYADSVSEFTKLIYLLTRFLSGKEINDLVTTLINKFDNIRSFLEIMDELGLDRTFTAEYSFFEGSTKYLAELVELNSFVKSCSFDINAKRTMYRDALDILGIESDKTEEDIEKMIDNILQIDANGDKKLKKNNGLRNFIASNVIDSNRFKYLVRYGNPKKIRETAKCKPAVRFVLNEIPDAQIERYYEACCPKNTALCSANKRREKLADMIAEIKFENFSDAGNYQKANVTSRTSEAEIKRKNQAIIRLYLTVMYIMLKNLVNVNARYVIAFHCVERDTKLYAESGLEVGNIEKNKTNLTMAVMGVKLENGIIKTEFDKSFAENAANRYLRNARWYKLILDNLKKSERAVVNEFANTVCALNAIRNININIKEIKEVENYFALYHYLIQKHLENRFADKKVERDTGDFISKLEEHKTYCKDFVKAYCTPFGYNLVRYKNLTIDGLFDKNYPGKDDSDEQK
The series can be described thus: crRNA (strand 1, pre-loaded); Mg2+; 40 mM Tris-HCl pH 7.5, 150 mM NaCl, 6 mM MgCl2, 1 mM DTT, 0.1% Tween-20, 0.2 mg/ml BSA; 25 C; 10 min per concentration, then washed. Conditions: tags: His6-TwinStrep-SUMO cleaved; N-terminal SNAP kept (SNAP-Surface 488); label: 3' end held by stalled T7 RNA polymerase.
In the case of B1, binding was characterised by a dissociation constant (Kd) of 37 ± 11 nM.
In turn, B2 displayed a Kd of roughly 30.5 nM.
For the molecule B3, the Kd worked out at 19 ± 9 nM.
With B4 the figure was 16 ± 5.5 nM; with B5, 12.3 ± 2.2 nM.
In turn, B6 displayed a Kd of 76 ± 9 nM.
With B7 the figure was 100 ± 50 nM.
On to B8, for which the Kd is roughly 18 nM.
In turn, B9 showed a Kd of 14.8 ± 2.55 nM.
B10 returned a Kd of 21.8 ± 6.1 nM.
For B11, the Kd was 29.5 ± 7 nM.
On to B12, for which binding was characterised by a dissociation constant (Kd) of 42.5 ± 8.5 nM.
With B13 the figure was 22.5 ± 7 nM; with B14, 9.8 ± 3.5 nM; with B15, 19.6 ± 4.75 nM.
As for B16, the figure is 36 ± 13.5 nM.
B17: binding was put at a Kd of 37 ± 10.5 nM.
With B18, the Kd was determined as 18 ± 5 nM.
Regarding B19, the Kd is roughly 64.5 nM.
B20 returned a Kd of 52 ± 19 nM.
In turn, B21 gave a Kd of 24 ± 6.5 nM.
B22: the Kd was 13.2 ± 1.2 nM.
As for B23, the figure is roughly 15 nM; as for B24, 10.8 ± 2.45 nM; as for B25, 16.6 ± 2.05 nM.
Consider B26, for which the Kd is roughly 37 nM.
With B27 the figure was 16 ± 6 nM.
